Measured values from the nanobody polyreactivity screen of Harvey et al. (2022).

test: yeast display, Sf9 membrane polyspecificity reagent, FACS + sequencing; frameworks hold sequencing errors
How it was run: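 Sorting gates, low and high (top ~1%), were placed on anti-HA fluorescence to track expression and on streptavidin fluorescence to track reagent binding. A clone's polyreactivity label is taken from the gate it came out of. The reagent was 10% biotinylated, detergent-solubilized Sf9 membrane, applied for 1 hour at 4 °C to galactose-induced yeast display cells.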

| Sequence | polyreactivity (PSR sort gate) |
| --- | --- |
| QVQLVESGGGLVQAGGSLRLSCAASGFIFAKYAMGWYRQAPGKERELVAAITSGGSTNYADSVKGRFTISRDNAKNTVYLQMNSLKPEDTAVYYCNRGFDWWYRYRHYDYWGQGTQVTVSS | low polyreactivity |
| QVQLVESGGGLVQAGGSLRLSCAASGFIFANYAKGWYRPAPGKERELVAAISSGGITYYADSVKGRFTISRDNAKNTVYLQMNSRKPEDTAVYYCACDVRYQDRSGEYHHWDGDYWGQGTQVTVTS | low polyreactivity |
| QVQLVESGGGLVQAGGSLRLSCAASGFIFANYAMGWYRQAPGKERELVAAISTSGSSTYYADSVKGRFTISRDNAKNTVYLQMNSLKPEDTAVYYCNTYLTIWGYFYGYDYWGQGTQVTVSS | high polyreactivity |
| QVQLVESGGGLVQAGGSLRLSCAASGFIFAQNAMGWYRQAPGKERELVAAISGSGGRTYYADSVKGRFTISRDNAKNTVYLQMNSLKPEDTAVYYCAAQSFSGYWGQGTQVTVSS | high polyreactivity |
| QVQLVESGGGLVQAGGSLRLSCAASGFIFARNAMGWYRQAPGKERELVARITKRGGSTFYADSVKGRFTISRDNAKNTVYLQMNSLKPEDPAVYYCNADGYHGHVEGDYWGQGTQVTVSS | high polyreactivity |
| QVQLVESGGGLVQAGGSLRLSCAASGFIFARYAMGWYRQAPGKERELVASITRRGGSTYYADSVKGRFTISRDNAKNTVYLQMNSLKPEDTAVYYCARPNLLSGDYWGQGTQVTVSS | high polyreactivity |
| QVQLVESGGGLVQAGGSLRLSCAASGFIFASYAMGWYRQAPGKERELVAAISWRGGSTYYADSVKGRFTISRDNAKNTVYLQMNSLKPEDTAVYYCKAYVYVGTGRGYDTLDYWGQGTQVTVSS | low polyreactivity |
| QVQLVESGGGLVQAGGSLRLSCAASGFIFATNAMGWYRQAPGKERELGASISSGDNTNYADSVKGRFTISRDNAKNTVYLQMNSLKPEHTAVYYCAAANKGPDQADYHYDQWGEYEYWGQGTQVTVSS | low polyreactivity |
| QVQLVESGGGLVQAGGSLRLSCAASGFIFATYAMGWYRQAPGKERELVAAISRRGVRTNYADSVKGRFTISRDNAKNTVYLQMNSLKQEDTAVYYCNAQSHYGKIPMYYWGQGTQVTVSS | high polyreactivity |
| QVQLVESGGGLVQAGGSLRLSCAASGFIFAYYAMGWYRQAAGKERELVAAITSDGSTYYADSVKGRFTISRDNAKNTVYLQMNSLKPEDTAVYYCNTYWVLRPGYNYWGQGTQVTVSS | high polyreactivity |
| QVQLVESGGGLVQAGGSLRLSCAASGFIFAYYAMGWYRQAPGKERELVAAISKRGGSTYYADSVKGRFTISRDNAKNTVYLQMNSLKPEDTAVYYCAADGHGGYGYWGQGTQVTVSS | high polyreactivity |
| QVQLVESGGGLVQAGGSLRLSCAASGFIFAYYAMGWYRQAPGKERELVAAITIDGSTNYADSVKGRFTISRDNAKNTVYLQMNSLKPEDTAVYYCAAADHPPVWYGYWGQGTQVTVSS | low polyreactivity |
| QVQLVESGGGLVQAGGSLRLSCAASGFIFAYYVMGWYRQAPGKERELVAAITSRGGRTYYADSVKGRFTISRDNAKNTVYLQMNSLKPEDTAVYYCAAYRQLVNLREDYWGQGTQVTVSS | high polyreactivity |
| QVQLVESGGGLVQAGGSLRLSCAASGFIFDAYVMGWYRQAPGKERELVAAITSSGGSTYYADSVKGRFTISRDNAKNTVYLQMNSLKPEDTAVYYCAATYWPWFVGYTYDLDYWGQGTQVTVSS | low polyreactivity |
| QVQLVESGGGLVQAGGSLRLSCAASGFIFDDNAMGWYRQAPGKERELVAAITSGGGSTYYADSVKGRFTISRDNAKNTVYLQMNSLKQEDTAVYYCNAVPSQHDEFDSWGQGTQVTVSS | low polyreactivity |
| QVQLVESGGGLVQAGGSLRLSCAASGFIFDDYARGWYRQAPGKERELVADIDYSGGSRYYADSVKGRFTISRDNAKNPVYLQMTSLKPEETAVYYGTAYYGILYYLLDYWGQGTQVTVSS | high polyreactivity |
